From patent US7638324 (BURNHAM INSTITUTE FOR MEDICAL RESEARCH, dated 2009)

T1: Bcl-GS (yeast two-hybrid construct) (human, UniProt Q9BZR8 1-241)
T1 construct: Used in yeast two-hybrid assays
T1 sequence: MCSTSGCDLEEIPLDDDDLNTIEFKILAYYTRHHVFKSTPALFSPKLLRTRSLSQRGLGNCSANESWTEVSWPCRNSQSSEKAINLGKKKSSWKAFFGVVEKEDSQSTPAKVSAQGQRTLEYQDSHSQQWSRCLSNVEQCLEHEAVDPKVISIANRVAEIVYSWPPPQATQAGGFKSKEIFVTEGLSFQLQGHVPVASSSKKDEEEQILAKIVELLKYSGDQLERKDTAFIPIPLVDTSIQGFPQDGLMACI


Tests used:
[1] = target: T2, GFP-Bcl-GS (human, UniProt P42212 1-238 = GFP, limits assumed); experiment: co-immunoprecipitation from lysates of transiently transfected cells
T2 construct: Expressed by transient transfection and immunoprecipitated with polyclonal anti-GFP antibody; also called Bcl-G (short); wild-type Bcl-GS
Protocol: (§1) For co-immunoprecipitations and immunoblotting, immunoblotting was performed as described previously (Xu and Reed, supra., (1998); Zhang et al., supra., (2000)). For co-immunoprecipitations, cells were cultured in […] benzocarbonyl Valine Alanine Aspartate fluoromethyl-ketone (zVAD-fmk) to prevent apoptosis. Cells were suspended in lysis buffer (50 mM Tris-HCl, pH7.4; 150 mM NaCl; 20 mM EDTA; 50 mM NaF; 0.5% NP-40; 0.1 mM Na_3VO_4; 20 µg/ml Leupeptin; 20 µg/ml Aprotinin; 1 mM dithiothreitol (DTT); and 1 mM phenylmethylsulfonylfluoride (PMSF). Lysates (0.2 ml diluted into 1 ml final volume of lysis buffer) were cleared by incubation with 15 µl of protein G-Sepharose 4B (Zymed; South San Francisco Calif.) and then incubated with 15 µl of polyclonal anti-GFP antibody (Santa Cruz; Santa Cruz Calif.) and 15 µl of protein G at 4° C. overnight. Beads were then washed 4 times with 1.5 mls lysis buffer before boiling in Laemmli sample buffer and performing SDS-PAGE/immunoblotting.

[2] = target: T1, Bcl-GS (yeast two-hybrid construct); experiment: yeast two-hybrid
[3] = target: Bcl-XL (UniProt Q07817 1-233); experiment: co-immunoprecipitation with anti-GFP antibody, anti-Bcl-XL immunoblot
Protocol: as §1

Bcl-XL, sequence (Q07817 whole entry): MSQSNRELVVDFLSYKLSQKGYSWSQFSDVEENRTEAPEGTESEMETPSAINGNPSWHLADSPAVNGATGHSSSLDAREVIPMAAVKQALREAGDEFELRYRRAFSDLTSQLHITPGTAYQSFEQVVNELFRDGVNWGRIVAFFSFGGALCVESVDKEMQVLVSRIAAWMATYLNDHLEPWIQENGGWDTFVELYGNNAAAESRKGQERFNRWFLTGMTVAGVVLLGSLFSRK

Binder	binding result [1]	binding result [2]	binding result [3]
Bad (other, UniProt Q92934 1-168, looked up) MFQIPEFEPSEQEDSSSAERGLGPSPAGDGPSGSGKHHRQAPGLLWDASHQQEQPTSSSHHGGAGAVEIRSRHSSYPAGTEDDEGMGEEPSPFRGRSRSAPPNLWAAQRYGRELRRMSDEFVDSFKKGLPRPKSAGTATQMRQSSSWTRVFQSWWDRNLGRGSSAPSQ	no binding		
Bak (other, UniProt Q16611 1-211, looked up) MASGQGPGPPRQECGEPALPSASEEQVAQDTEEVFRSYVFYRHQQEQEAEGVAAPADPEMVTLPLQPSSTMGQVGRQLAIIGDDINRRYDSEFQTMLQHLQPTAENAYEYFTKIATSLFESGINWGRVVALLGFGYRLALHVYQHGLTGFLGQVTRFVVDFMLHHCIARWIAQRGGWVAALNLGNGPILNVLVVLGVVLLGQFVVRRFFKS	no binding	no binding	
Bid (other, UniProt P55957 1-195, looked up) MDCEVNNGSSLRDECITNLLVFGFLQSCSDNSFRRELDALGHELPVLAPQWEGYDELQTDGNRSSHSRLGRIEADSESQEDIIRNIARHLAQVGDSMDRSIPPGLVNGLALQLRNTSRSEEDRNRDLATALEQLLQAYPRDMEKEKTMLVLALLLAKKVASHTPSLLRDVFHTTVNFINQNLRTYVRSLARNGMD	no binding		
GFP-Bcl-GS (ΔBH3) (other, The limits of the deletion would have to be derived from the primers; they are not guessed here; also called GFP-Bcl-GS (DBH3); mutant of Bcl-GS lacking the BH3 domain; not shown: N-terminal EGFP and the short vector linker of pEGFP-C1 (Clontech)) MCSTSGCDLEEIPLDDDDLNTIEFKILAYYTRHHVFKSTPALFSPKLLRTRSLSQRGLGNCSANESWTEVSWPCRNSQSSEKAINLGKKKSSWKAFFGVVEKEDSQSTPAKVSAQGQRTLEYQDSHSQQWSRCLSNVEQCLEHEAVDPKVISIANRVAEIVYSWPPPQATQAGGFKSKEIFVTEGLSFQLQGHVPVASSSKKDEEEQILAGSDTAFIPIPLVDTSIQGFPQDGLMACI			no binding
